Measurements as given in article PMC11162792 (Nucleic Acids Research, 2023).

T1: PEDV nsp12 (porcine epidemic diarrhea virus (PEDV), UniProt P0C6Y4)
T1 sequence: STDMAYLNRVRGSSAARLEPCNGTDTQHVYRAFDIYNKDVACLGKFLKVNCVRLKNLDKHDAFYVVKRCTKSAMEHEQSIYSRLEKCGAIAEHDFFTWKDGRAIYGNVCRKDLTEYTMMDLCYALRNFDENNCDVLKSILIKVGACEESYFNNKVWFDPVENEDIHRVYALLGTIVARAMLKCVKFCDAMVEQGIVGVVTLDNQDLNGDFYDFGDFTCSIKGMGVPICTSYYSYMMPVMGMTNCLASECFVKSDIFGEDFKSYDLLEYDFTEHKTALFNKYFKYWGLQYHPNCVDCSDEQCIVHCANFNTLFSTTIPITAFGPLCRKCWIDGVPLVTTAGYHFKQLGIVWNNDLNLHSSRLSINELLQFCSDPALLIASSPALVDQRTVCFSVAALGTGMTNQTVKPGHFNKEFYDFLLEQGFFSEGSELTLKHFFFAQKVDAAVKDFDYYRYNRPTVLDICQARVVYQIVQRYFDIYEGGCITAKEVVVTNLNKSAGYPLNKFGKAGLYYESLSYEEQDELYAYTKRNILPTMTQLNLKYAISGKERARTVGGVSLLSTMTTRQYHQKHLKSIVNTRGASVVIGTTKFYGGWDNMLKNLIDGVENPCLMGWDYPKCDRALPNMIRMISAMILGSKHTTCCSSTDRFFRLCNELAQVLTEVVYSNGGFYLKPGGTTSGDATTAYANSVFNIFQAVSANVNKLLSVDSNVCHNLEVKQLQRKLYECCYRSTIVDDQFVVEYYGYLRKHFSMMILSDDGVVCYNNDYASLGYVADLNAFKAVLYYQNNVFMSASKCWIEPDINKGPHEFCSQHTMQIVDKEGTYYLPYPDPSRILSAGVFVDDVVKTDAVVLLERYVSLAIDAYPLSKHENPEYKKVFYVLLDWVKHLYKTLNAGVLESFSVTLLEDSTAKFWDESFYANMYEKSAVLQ


How the values were obtained:
[1] = molecular target: PEDV nsp12-A382R (porcine epidemic diarrhea virus (PEDV)); test: native MS
[2] = molecular target: T1, PEDV nsp12; test: native MS
[3] = molecular target: PEDV nsp12 (RdRp);PEDV nsp7;PEDV nsp8 (Porcine epidemic diarrhea virus …, UniProt P0C6Y4;P0C6Y4;P0C6Y4 4101-5027;3580-3662;3663-3857, ||); test: native mass spectrometry

Molecule | stoichiometry N [2] | further results
PEDV nsp12-A382R (enzyme) | – | stoichiometry N [1]: 2
PEDV nsp7 (natural protein) SKLTDIKCSNVVLLGCLSSMNVSANSTEWAYCVDLHNKINLCNDPEKAQEMLLALLAFFLSKNSAFGLDDLLESYFNDNSMLQ | 1 | –
PEDV nsp8 (natural protein) SVASTYVGLPSYVIYENARQQYEDAVNNGSPPQLVKQLRHAMNVAKSEFDREASTQRKLDRMAEQAAAQMYKEARAVNRKSKVVSAMHSLLFGMLRRLDMSSVDTILNLAKDGVVPLSVIPAVSATKLNIVTSDIDSYNRIQREGCVHYAGTIWNIIDIKDNDGKVVHVKEVTAQNAESLSWPLVLGCERIVKLQ | 2 | –
Pair 1 primer/template RNA (short) (dsRNA) RNA 1: CAUUCUCCUAAGAAGCUAUUAAAAUCACA RNA 2: AAAAAGGGUUGUGAUUUUAAUAGCUUCUUAGGAGAAUG | – | binding result [3]: binds
